From article PMC7570090, “Label-Free Monitoring of Histone Acetylation Using Aptamer-Functionalized Field-Effect Transistor and Quartz Crystal Microbalance Sensors” come the findings set out here.

Series [1] addresses histone H4 (human, UniProt P62805 1-103). Nature of the series: FET and QCM; 140 mM KCl; 44-2650 nM H4; FET: 1 mM phosphate, 140 mM KCl, pH 7.4, 25 C; aptamer/sulfobetaine SAM on gold annealed at 100 C and slowly cooled; QCM 30 MHz, 25 C (buffer not separately stated). The conditions noted are these: protein: commercial; G-quadruplex with K+.
Series [2] addresses histone H3.1 (human, UniProt P68431 1-136). The experiment in a line: FET and QCM; 140 mM KCl; 33-1950 nM H3; FET: 1 mM phosphate, 140 mM KCl, pH 7.4, 25 C; aptamer/sulfobetaine SAM on gold annealed at 100 C and slowly cooled; QCM 30 MHz, 25 C (buffer not separately sta).

B1: anti-histone H4 aptamer (structured_DNA)
DNA: TTTTGGTGGGGTTCCCGGGAGGGCGGCTACGGGTTCCGTAATCAGATTTGTGT
modifications: 5' 6-mercaptohexyl linker
Take B1: in series [1], the binding result is on record as “binds”.

B2: anti-histone H3 aptamer (structured_DNA)
DNA: TTTGAGTGTGGTTCCCGGGAGGGCGCCTACGGGTCCCGTATTCGGATTTGTGC
modifications: 5' 6-mercaptohexyl linker
Take B2: the binding result in series [2] is reported as “binds”.
